# Laboratory results taken from article PMC10121561, “Control of a hippocampal recurrent excitatory circuit by cannabinoid receptor-interacting protein Gap43” (Nature Communications, 2023).
# T1: hGAP43 (purified, unlabeled human growth-associated protein of 43 kDa) (human, UniProt P17677 1-238)
# T1 construct: growth-associated protein of 43 kDa (GAP43, neuromodulin), human; also called unlabeled GAP43; neuromodulin; source: purified (details in Supplementary Methods)
# T1 sequence (looked up): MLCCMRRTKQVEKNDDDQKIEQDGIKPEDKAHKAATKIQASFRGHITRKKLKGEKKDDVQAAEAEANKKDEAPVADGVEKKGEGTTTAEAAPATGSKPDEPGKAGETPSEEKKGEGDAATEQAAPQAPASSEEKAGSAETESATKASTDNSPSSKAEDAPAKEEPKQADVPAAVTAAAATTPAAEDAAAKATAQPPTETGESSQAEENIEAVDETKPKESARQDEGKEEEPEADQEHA
# B1: GFP-GAP43(WT) (natural protein, UniProt P17677 1-238, looked up)
# chain: MLCCMRRTKQVEKNDDDQKIEQDGIKPEDKAHKAATKIQASFRGHITRKKLKGEKKDDVQAAEAEANKKDEAPVADGVEKKGEGTTTAEAAPATGSKPDEPGKAGETPSEEKKGEGDAATEQAAPQAPASSEEKAGSAETESATKASTDNSPSSKAEDAPAKEEPKQADVPAAVTAAAATTPAAEDAAAKATAQPPTETGESSQAEENIEAVDETKPKESARQDEGKEEEPEADQEHA
# notes: growth-associated protein of 43 kDa (GAP43), wild type; In the co-IP and DMR experiments the text writes GAP43(WT) without GFP; source: HEK293T, transfected, in cells or lysate
# B2: GFP-GAP43(S41D) (natural protein, UniProt P17677 1-238, looked up)
# chain: MLCCMRRTKQVEKNDDDQKIEQDGIKPEDKAHKAATKIQADFRGHITRKKLKGEKKDDVQAAEAEANKKDEAPVADGVEKKGEGTTTAEAAPATGSKPDEPGKAGETPSEEKKGEGDAATEQAAPQAPASSEEKAGSAETESATKASTDNSPSSKAEDAPAKEEPKQADVPAAVTAAAATTPAAEDAAAKATAQPPTETGESSQAEENIEAVDETKPKESARQDEGKEEEPEADQEHA
# notes: growth-associated protein of 43 kDa (GAP43) with the phospho-mimetic point mutation S41D; In the co-IP and DMR experiments the text writes GAP43(S41D) without GFP; also called phospho-mimetic GAP43; source: HEK293T, transfected, in cells or lysate
# B3: 5-(iodoacetamido)fluorescein-labeled hCB1R-CTD (domain or fragment, human, UniProt P21554 408-472, looked up)
# chain: FRSMFPSCEGTAQPLDNSMGDSDCLHKHANNAASVHRAAESCIKSTVKIAKVTMSVSTDTSAEAL
# modifications: also: 5-(iodoacetamido)fluorescein label, position not given here
# notes: type-1 cannabinoid receptor (CB1R), human, C-terminal intracellular domain, amino acids 408-472; protein expression and purification are in the Supplementary Methods; also called 5-IAF-labeled CB1R-CTD; source: purified (recombinant; details in Supplementary Methods)
# Tests used:
# [1] = target: CB1R (type-1 cannabinoid receptor) (UniProt P21554); assay: BRET saturation, CB1R-RLuc and GFP-GAP43; details: reference: GFP-GAP43 wild type; sites S41
# RLuc-tagged CB1R = target: T2, RLuc-tagged CB1R (UniProt P21554 1-472); assay: FRET or BRET; BRET saturation in live HEK293T cells expressing CB1R-RLuc and increasing amounts of GFP-GAP43 forms; 3 independent experiments; details: partners not purified
# T2 construct: type-1 cannabinoid receptor (CB1R); also called CB1R-RLuc; source: HEK293T, transfected, in live cells
# [2] = target: T1, hGAP43 (purified, unlabeled human …); assay: fluorescence polarisation; fixed concentration of 5-IAF-labeled hCB1R-CTD, increasing concentrations of unlabeled hGAP43; 3 independent experiments; details: both partners purified
molecule,measurement,setting,value
GAP43 (growth-associated protein of 43 kDa; neuromodulin) (from UniProt P17677) GFP-GAP43 S41D,other: BRET50 (RLuc/GFP ratio giving half-maximal BRET),[1],stronger; reference 15.18 ± 4.53
B1,BRET50 (RLuc/GFP ratio that gives half-maximal BRET effect),RLuc-tagged CB1R,15.2
B2,BRET50 (RLuc/GFP ratio that gives half-maximal BRET effect),RLuc-tagged CB1R,7.08
B3,Kd,[2],38.2 µM
